According to article PMC4143292, “An Enzymatic Platform for the Synthesis of Isoprenoid Precursors” (PLoS ONE, 2014):

Assays:
[1] = substrate: C[C@@](O)(CCO)CC(=O)O; test: PK/LDH-coupled NADH oxidation, progress curves; format: biochemical, Staphylococcus aureus; settings: ATP 5.0 mM, MgCl2 1.0 mM + nucleotide, KCl 50 mM, Hepes pH 8.0, 25 C, apparent
Description: PK/LDH-coupled NADH oxidation, progress curves on MVK (mevalonate kinase)

purified protein = substrate: CC(=O)O; test: purified protein; settings: CoA 2.0 mM, ATP 4.0 mM, MgCl2 1.0 mM + nucleotide, KCl 50 mM, Hepes pH 8.0, 25 C, apparent
[2] = substrate: CC(C)(COP(=O)(O)OP(=O)(O)OC[C@H]1O[C@@H](n2cnc3c(N)ncnc32)[C@H](O)[C@@H]1OP(=O)(O)O)[C@@H](O)C(=O)NCCC(=O)NCCS; test: coupled NADH oxidation, progress curves; format: biochemical, Saccharomyces cerevisiae; settings: acetate 2.0 mM, ATP 4.0 mM, MgCl2 1.0 mM + nucleotide, KCl 50 mM, Hepes pH 8.0, 25 C, apparent
Description: coupled NADH oxidation, progress curves on ACS (acetyl-CoA synthetase)

Protein | Km [1] | kcat [1] | Km (purified protein) | kcat (purified protein) | Km [2] | kcat [2]
MVK (mevalonate kinase) (Staphylococcus aureus) (protein, N-terminal His9-GST tag removed with PreScission protease; expressed in E. coli BL21(DE3)) MTRKGYGESTGKIILIGEHAVTFGEPAIAVPFNAGKIKVLIEALESGNYSSIKSDVYDGMLYDAPDHLKSLVNRFVELNNITEPLAVTIQTNLPPSRGLGSSAAVAVAFVRASYDFLGKSLTKEELIEKANWAEQIAHGKPSGIDTQTIVSGKPVWFQKGQAETLKTLSLDGYMVVIDTGVKGSTRQAVEDVHKLCEDPQYMSHVKHIGKLVLRASDVIEHHNFEALADIFNECHADLKALTVSHDKIEQLMKIGKENGAIAGKLTGAGRGGSMLLLAKDLPTAKNIVKAVEKAGAAHTWIENLGG | 27 µM | 19 s⁻¹ | – | – | – | –
ACS (acetyl-CoA synthetase) (Saccharomyces cerevisiae S288C) (protein) MSPSAVQSSKLEEQSSEIDKLKAKMSQSAATAQQKKEHEYEHLTSVKIVPQRPISDRLQPAIATHYSPHLDGLQDYQRLHKESIEDPAKFFGSKATQFLNWSKPFDKVFIPDPKTGRPSFQNNAWFLNGQLNACYNCVDRHALKTPNKKAIIFEGDEPGQGYSITYKELLEEVCQVAQVLTYSMGVRKGDTVAVYMPMVPEAIITLLAISRIGAIHSVVFAGFSSNSLRDRINDGDSKVVITTDESNRGGKVIETKRIVDDALRETPGVRHVLVYRKTNNPSVAFHAPRDLDWATEKKKYKTYYPCTPVDSEDPLFLLYTSGSTGAPKGVQHSTAGYLLGALLTMRYTFDTHQEDVFFTAGDIGWITGHTYVVYGPLLYGCATLVFEGTPAYPNYSRYWDIIDEHKVTQFYVAPTALRLLKRAGDSYIENHSLKSLRCLGSVGEPIAAEVWEWYSEKIGKNEIPIVDTYWQTESGSHLVTPLAGGVTPMKPGSASFPFFGIDAVVLDPNTGEELNTSHAEGVLAVKAAWPSFARTIWKNHDRYLDTYLNPYPGYYFTGDGAAKDKDGYIWILGRVDDVVNVSGHRLSTAEIEAAIIEDPIVAECAVVGFNDDLTGQAVAAFVVLKNKSSWSTATDDELQDIKKHLVFTVRKDIGPFAAPKLIILVDDLPKTRSGKIMRRILRKILAGESDQLGDVSTLSNPGIVRHLIDSVKL | – | – | 280 µM | 10 s⁻¹ | 240 µM | 10 s⁻¹
